What was measured:
[1] = biological target: T1, full length human PDGFR-beta on HEK293 cells (human, UniProt P09619 33-1106); assay: cell-based or functional assay
[2] = biological target: T2, Macaca fascicularis PDGFRb.mmh (Macaca fascicularis); assay: SPR, mAb captured, 25 C
T2 construct: Soluble monomeric construct; also called mfPDGFRb.mmh
T2 chain: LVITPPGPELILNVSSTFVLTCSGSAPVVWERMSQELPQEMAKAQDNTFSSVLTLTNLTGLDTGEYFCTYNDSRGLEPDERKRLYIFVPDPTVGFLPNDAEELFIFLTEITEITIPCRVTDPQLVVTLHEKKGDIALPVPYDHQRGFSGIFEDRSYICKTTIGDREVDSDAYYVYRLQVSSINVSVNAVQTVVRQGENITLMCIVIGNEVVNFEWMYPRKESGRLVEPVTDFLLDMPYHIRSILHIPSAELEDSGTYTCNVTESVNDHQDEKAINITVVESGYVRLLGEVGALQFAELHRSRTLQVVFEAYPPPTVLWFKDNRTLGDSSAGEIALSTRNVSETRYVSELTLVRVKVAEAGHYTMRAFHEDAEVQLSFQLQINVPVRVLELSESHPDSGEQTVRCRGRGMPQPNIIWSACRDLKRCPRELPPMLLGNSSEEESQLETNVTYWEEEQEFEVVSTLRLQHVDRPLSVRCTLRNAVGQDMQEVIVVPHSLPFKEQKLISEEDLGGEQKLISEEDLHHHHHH
Experimental: (§1) Antibodies, expressed as either mouse Fc (prefix H1M; H2M) or human Fc (prefix H4H), were captured on their respective anti-Fc sensor surfaces (Mab capture format). […] Kinetic association (kₐ) and dissociation (kd) rate constants were determined by processing and fitting the data to a 1:1 binding model using Scrubber 2.0 curve fitting software.

human PDGFRb.mFc = biological target: T3, human PDGFRb.mFc (human); assay: SPR, mAb captured, 25 C
T3 construct: Soluble dimeric construct with mouse Fc; also called hPDGFRb.mFc; soluble human PDGFR-beta.mFc
T3 chain: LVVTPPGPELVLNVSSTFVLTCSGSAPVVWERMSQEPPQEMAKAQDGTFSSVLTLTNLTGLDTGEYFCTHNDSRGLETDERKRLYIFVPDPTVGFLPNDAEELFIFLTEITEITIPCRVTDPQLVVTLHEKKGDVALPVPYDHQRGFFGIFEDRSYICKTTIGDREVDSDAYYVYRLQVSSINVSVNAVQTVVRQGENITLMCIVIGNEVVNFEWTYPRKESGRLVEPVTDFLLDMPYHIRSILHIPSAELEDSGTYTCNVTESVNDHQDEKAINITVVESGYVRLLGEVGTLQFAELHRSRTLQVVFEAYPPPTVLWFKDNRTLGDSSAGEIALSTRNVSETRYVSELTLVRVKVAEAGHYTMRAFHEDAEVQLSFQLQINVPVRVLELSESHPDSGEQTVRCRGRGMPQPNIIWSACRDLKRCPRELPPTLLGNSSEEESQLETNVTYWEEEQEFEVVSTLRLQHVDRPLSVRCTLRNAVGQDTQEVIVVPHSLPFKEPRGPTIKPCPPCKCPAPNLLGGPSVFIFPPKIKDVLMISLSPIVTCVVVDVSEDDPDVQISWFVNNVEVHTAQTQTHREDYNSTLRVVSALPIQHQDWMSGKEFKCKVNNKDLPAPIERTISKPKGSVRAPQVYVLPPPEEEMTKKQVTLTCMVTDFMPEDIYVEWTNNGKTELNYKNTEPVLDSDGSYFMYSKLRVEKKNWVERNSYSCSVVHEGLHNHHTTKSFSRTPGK
Experimental: as §1

hPDGFRb.mmh [3] = biological target: T4, hPDGFRb.mmh (human, UniProt P09619 33-531); assay: SPR, mAb captured, 25 C
T4 construct: Soluble monomeric construct; also called soluble human PDGFR-beta.mmh
Experimental: as §1

hPDGFRb.mmh [4] = biological target: T4, hPDGFRb.mmh; assay: SPR, mAb captured, 37 C
Experimental: as §1

hPDGFRb.mmh [5] = biological target: T4, hPDGFRb.mmh; assay: blocking ELISA, biot-hPDGFRb.mmh to coated PDGF-BB
hPDGFRb.mmh [6] = biological target: T4, hPDGFRb.mmh; assay: Octet BLI cross-competition, 25 C; hPDGFRb.mmh on anti-Penta-His tips pre-saturated with mAb-1 H4H3103S (row 4)
Experimental: (§2) A cross-competition assay was conducted to assess the ability of select antibodies to compete with one another for binding to human PDGFR-beta. […] Each PDGFR-beta.mmh-coated sensor tip was saturated for 5 min with a first anti-PDGFR-beta antibody (Mab #1; 50 μg/mL). Next, each sensor tip was saturated with a solution of a second anti-PDGFR-beta antibody (Mab #2). The real time response of Mab #2 binding to PDGR-beta.mmh pre-complexed with Mab #1 was then monitored. All assays were performed at 25° C. with a flow rate of 1000 rpm on an Octet RED384 biosensor in Octet HBST buffer according to manufacturer's instructions (ForteBio Corp., Menlo Park, Calif.). Results are illustrated in FIG. 2.

hPDGFRb.mmh [7] = biological target: T4, hPDGFRb.mmh; assay: Octet BLI cross-competition, 25 C; hPDGFRb.mmh on anti-Penta-His tips pre-saturated with mAb-1 H4H3094P (row 5)
Experimental: as §2

hPDGFRb.mmh [8] = biological target: T4, hPDGFRb.mmh; assay: Octet BLI cross-competition, 25 C; hPDGFRb.mmh on anti-Penta-His tips pre-saturated with mAb-1 H4H3365N (row 2)
Experimental: as §2

human PDGFRb.hFc [9] = biological target: T5, human PDGFRb.hFc (human); assay: SPR, mAb captured, 25 C
T5 construct: Soluble dimeric construct with human Fc; also called hPDGFRb.hFc
Experimental: as §1

[10] = biological target: T2, Macaca fascicularis PDGFRb.mmh; assay: SPR, mAb captured, 37 C
Experimental: as §1

human PDGFRb.hFc [11] = biological target: T5, human PDGFRb.hFc; assay: SPR, mAb captured, 37 C
Experimental: as §1

hPDGFRb.mmh [12] = biological target: T4, hPDGFRb.mmh; assay: Octet BLI cross-competition, 25 C; hPDGFRb.mmh on anti-Penta-His tips pre-saturated with mAb-1 H4H3107S (row 7)
Experimental: as §2

hPDGFRb.mmh [13] = biological target: T4, hPDGFRb.mmh; assay: Octet BLI cross-competition, 25 C; hPDGFRb.mmh on anti-Penta-His tips pre-saturated with mAb-1 H4H3099S (row 6)
Experimental: as §2

[14] = biological target: T1, full length human PDGFR-beta on HEK293 …; assay: cell-based or functional assay; remark: listed apart in the source
hPDGFRb.mmh [15] = biological target: T4, hPDGFRb.mmh; assay: Octet BLI cross-competition, 25 C; hPDGFRb.mmh on anti-Penta-His tips pre-saturated with mAb-1 H4H3374N (row 3)
Experimental: as §2

hPDGFRb.mmh [16] = biological target: T4, hPDGFRb.mmh; assay: Octet BLI cross-competition, 25 C; hPDGFRb.mmh on anti-Penta-His tips pre-saturated with mAb-1 Control I (row 1)
Experimental: as §2

hPDGFRb.mmh [17] = biological target: T4, hPDGFRb.mmh; assay: Octet BLI cross-competition, 25 C; hPDGFRb.mmh on anti-Penta-His tips pre-saturated with mAb-1 H4H3305N (row 8)
Experimental: as §2

B1: H1M3374N (antibody, V domains shown)
VH: QLQLQESGPGLVKPSETLSLTCTVSGGSITSSSYYWGWIRQPPGKGLEWIGSIYYRGSTNYNPSLKSRVTISVDSSKNQFYLKVSSVTAVDTAVYYCARQNGAARPSWFDPWGQGTLVTVSS
VL: EIVLTQSPDTISLSPGERATLSCRASQSISSIYLAWYQQKPGQAPRLLIYGASSRVTGIPDRFSVSGSGTDFTLTISRLEPEDFAVYYCQHYGISPFTFGPGTKVDIR
notes: mouse Fc format; also called H2M3374N
- IC50, blocking PDGF-BB (250 pM) activation, SRE-luciferase [1]: 3.1e-10 M
- IC50, blocking PDGF-DD (400 pM) activation, SRE-luciferase [1]: 2.1e-10 M
- Kd [2]: 2.7 nM
- koff [2]: 0.000371 s⁻¹
- kon [2]: 137000 M⁻¹ s⁻¹
- t1/2 [2]: 31 min
- Kd (human PDGFRb.mFc): 0.108 nM
- koff (human PDGFRb.mFc): 0.000107 s⁻¹
- kon (human PDGFRb.mFc): 996000 M⁻¹ s⁻¹
- t1/2 (human PDGFRb.mFc): 108 min
- Kd (hPDGFRb.mmh [3]): 1.99 nM
- koff (hPDGFRb.mmh [3]): 0.000331 s⁻¹
- kon (hPDGFRb.mmh [3]): 167000 M⁻¹ s⁻¹
- t1/2 (hPDGFRb.mmh [3]): 35 min
- Kd (hPDGFRb.mmh [4]): 1.71 nM
- koff (hPDGFRb.mmh [4]): 0.00079 s⁻¹
- kon (hPDGFRb.mmh [4]): 463000 M⁻¹ s⁻¹
- t1/2 (hPDGFRb.mmh [4]): 15 min
- % Maximum Blocking (hPDGFRb.mmh [5]): 88%
- IC50 (hPDGFRb.mmh [5]): 0.077 nM

B2: H4H3310N (antibody, human IgG4, V domains shown)
VH: EVQLLESGGDLVQPGGSLRLSCAASGITFSSFAMSWVRQAPGKGLEWVSTVSVSAGITYYADSVKGRFTISRDNSKNTLYLQMNSLRAEDTAIYYCAKSSCTTNSCPAYFDYWGLGTLVTVSS
VL: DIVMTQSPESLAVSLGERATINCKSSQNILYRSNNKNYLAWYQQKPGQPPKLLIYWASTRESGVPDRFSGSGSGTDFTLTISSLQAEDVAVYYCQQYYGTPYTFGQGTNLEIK
notes: human IgG4 Fc (H4H prefix)
- Response of mAb-2 Binding to hPDGFRβ.mmh Pre-Complexed with mAb-1 (nm) (hPDGFRb.mmh [6]): 0.24 nm
- IC50, blocking PDGF-BB (250 pM) activation, SRE-luciferase [1]: 6.8e-10 M
- IC50, blocking PDGF-DD (400 pM) activation, SRE-luciferase [1]: 6.6e-10 M
- Response of mAb-2 Binding to hPDGFRβ.mmh Pre-Complexed with mAb-1 (nm) (hPDGFRb.mmh [7]): 0.27 nm
- Response of mAb-2 Binding to hPDGFRβ.mmh Pre-Complexed with mAb-1 (nm) (hPDGFRb.mmh [8]): 0.24 nm
- Kd [2]: 3.75 nM
- koff [2]: 0.000108 s⁻¹
- kon [2]: 28800 M⁻¹ s⁻¹
- t1/2 [2]: 107 min
- Kd (human PDGFRb.hFc [9]): 0.652 nM
- koff (human PDGFRb.hFc [9]): 2.9e-05 s⁻¹
- kon (human PDGFRb.hFc [9]): 44500 M⁻¹ s⁻¹
- t1/2 (human PDGFRb.hFc [9]): 398 min
- Kd (hPDGFRb.mmh [3]): 3.41 nM
- koff (hPDGFRb.mmh [3]): 8.92e-05 s⁻¹
- kon (hPDGFRb.mmh [3]): 26100 M⁻¹ s⁻¹
- t1/2 (hPDGFRb.mmh [3]): 130 min
- Kd [10]: 7.62 nM
- koff [10]: 0.000392 s⁻¹
- kon [10]: 51400 M⁻¹ s⁻¹
- t1/2 [10]: 29 min
- Kd (human PDGFRb.hFc [11]): 0.632 nM
- koff (human PDGFRb.hFc [11]): 4.5e-05 s⁻¹
- kon (human PDGFRb.hFc [11]): 71300 M⁻¹ s⁻¹
- t1/2 (human PDGFRb.hFc [11]): 256 min
- Kd (hPDGFRb.mmh [4]): 6.65 nM
- koff (hPDGFRb.mmh [4]): 0.000339 s⁻¹
- kon (hPDGFRb.mmh [4]): 50900 M⁻¹ s⁻¹
- t1/2 (hPDGFRb.mmh [4]): 34 min
- Response of mAb-2 Binding to hPDGFRβ.mmh Pre-Complexed with mAb-1 (nm) (hPDGFRb.mmh [12]): -0.01 nm
- Response of mAb-2 Binding to hPDGFRβ.mmh Pre-Complexed with mAb-1 (nm) (hPDGFRb.mmh [13]): -0.01 nm
- Percent Internalization (Relative to Control I) [14]: 66%
- Response of mAb-2 Binding to hPDGFRβ.mmh Pre-Complexed with mAb-1 (nm) (hPDGFRb.mmh [15]): 0.23 nm
- Response of mAb-2 Binding to hPDGFRβ.mmh Pre-Complexed with mAb-1 (nm) (hPDGFRb.mmh [16]): 0.2 nm
- Response of mAb-2 Binding to hPDGFRβ.mmh Pre-Complexed with mAb-1 (nm) (hPDGFRb.mmh [17]): 0.01 nm
- % Maximum Blocking (hPDGFRb.mmh [5]): 86%
- IC50 (hPDGFRb.mmh [5]): 0.45 nM

From patent US20170210813A1 (Regeneron, published 2017)
